Results published in patent US20150105322.

Assays:
[1] = molecular target: E. coli expressed human annexin A2, P07355
[2] = molecular target: glycosylated human annexin A2-6×His expressed in Pichia pastoris
[3] = molecular target: non-N-glycosylated human annexin A2-6×His (N62A) group #1 expressed in Pichia pastoris
[4] = molecular target: non-N-glycosylated human annexin A2-6×His (N62A) group #2 expressed in Pichia pastoris
Chain of non-N-glycosylated human annexin A2-6×His (N62A) group #2 expressed in Pichia pastoris (chain, as listed by the source N62A): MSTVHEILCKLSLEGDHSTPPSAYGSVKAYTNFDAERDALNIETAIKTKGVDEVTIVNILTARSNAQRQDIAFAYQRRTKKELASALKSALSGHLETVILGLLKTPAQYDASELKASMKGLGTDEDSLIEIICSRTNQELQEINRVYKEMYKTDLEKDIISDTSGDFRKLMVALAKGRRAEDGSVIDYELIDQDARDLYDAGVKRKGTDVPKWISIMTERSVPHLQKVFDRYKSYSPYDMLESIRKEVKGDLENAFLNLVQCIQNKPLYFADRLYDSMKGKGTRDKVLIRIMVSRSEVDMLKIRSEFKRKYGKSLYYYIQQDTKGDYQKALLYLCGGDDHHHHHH

Chain of non-N-glycosylated human annexin A2-6×His (N62A) group #1 expressed in Pichia pastoris (chain, as listed by the source N62A): as above
Chain of E. coli expressed human annexin A2, P07355 (P07355 whole entry): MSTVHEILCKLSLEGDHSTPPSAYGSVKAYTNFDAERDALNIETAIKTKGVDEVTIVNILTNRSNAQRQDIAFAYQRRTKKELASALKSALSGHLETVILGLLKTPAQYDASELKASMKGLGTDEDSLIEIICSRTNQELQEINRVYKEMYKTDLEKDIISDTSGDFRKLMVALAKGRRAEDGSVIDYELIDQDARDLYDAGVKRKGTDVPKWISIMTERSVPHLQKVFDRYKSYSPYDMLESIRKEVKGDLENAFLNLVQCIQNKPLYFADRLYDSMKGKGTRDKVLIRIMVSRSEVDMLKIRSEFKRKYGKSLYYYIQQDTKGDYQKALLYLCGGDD
Chain of glycosylated human annexin A2-6×His expressed in Pichia pastoris (chain, as listed by the source): as the sequence (chain, as listed by the source N62A) above, with A62N counted along it

B1: tissue plasminogen activator (protein)
chain: SYQVICRDEKTQMIYQQHQSWLRPVLRSNRVEYCWCNSGRAQCHSVPVKSCSEPRCFNGGTCQQALYFSDFVCQCPEGFAGKCCEIDTRATCYEDQGISYRGTWSTAESGAECTNWNSSALAQKPYSGRRPDAIRLGLGNHNYCRNPDRDSKPWCYVFKAGKYSSEFCSTPACSEGNSDCYFGNGSAYRGTHSLTESGASCLPWNSMILIGKVYTAQNPSAQALGLGKHNYCRNPDGDAKPWCHVLKNRRLTWEYCDVPSCSTCGLRQYSQPQFRIKGGLFADIASHPWQAAIFAKHRRSPGERFLCGGILISSCWILSAAHCFQERFPPHHLTVILGRTYRVVPGEEEQKFEVEKYIVHKEFDDDTYDNDIALLQLKSDSSRCAQESSVVRTVCLPPADLQLPDWTECELSGYGKHEALSPFYSERLKEAHVRLYPSSRCTSQHLLNRTVTDNMLCAGDTRSGGPQANLHDACQGDSGGPLVCLNDGRMTLVGIISWGLGCGQKDVPGVYTKVTNYLDWIRDNMRP
tPA-mediated plasmin-generation (fluorogenic plasmin substrate D-Val-Leu-Lys-AMC, with N-terminal lysine plasminogen) [1]: comparable to the E. coli expressed human annexin A2 (positive control, labeled as t1+bac-rA2) | tPA-mediated plasmin-generation (fluorogenic plasmin substrate D-Val-Leu-Lys-AMC, with N-terminal lysine plasminogen) [2]: did not significantly enhance tPA-mediated plasmin-generation | tPA-mediated plasmin-generation (fluorogenic plasmin substrate D-Val-Leu-Lys-AMC, with N-terminal lysine plasminogen) [3]: restored the enhancer function completely | tPA-mediated plasmin-generation (fluorogenic plasmin substrate D-Val-Leu-Lys-AMC, with N-terminal lysine plasminogen) [4]: The enhancer function was partially (about 50%) restored in group #2
